Target: mouse Fas on mouse hepatic parenchymal cells (mouse) (UniProt P25446)

anti-mouse Fas antibody (Jo-2; product of Phar-Mingen Co.)
Viability (%) of mouse hepatic parenchymal cells (ALAMAR BLUE fluorescence): 99%

Reference: patent publication US6068841
